# Test results taken from PMC3176292, “Mutations in Protein-Binding Hot-Spots on the Hub Protein Smad3 Differentially Affect Its Protein Interactions and Smad3-Regulated Gene Expression” (PLoS ONE, 2011).
# T1: Flag-SkiW274E, full length (UniProt P12755 1-728, W274E)
# T1 construct: plasmid pCMV5b-Flag-SkiW274E (from K. Luo); also called SkiW274E FL; SKI274E; source: HEK-293, transfected, in lysate
# T1 sequence (looked up): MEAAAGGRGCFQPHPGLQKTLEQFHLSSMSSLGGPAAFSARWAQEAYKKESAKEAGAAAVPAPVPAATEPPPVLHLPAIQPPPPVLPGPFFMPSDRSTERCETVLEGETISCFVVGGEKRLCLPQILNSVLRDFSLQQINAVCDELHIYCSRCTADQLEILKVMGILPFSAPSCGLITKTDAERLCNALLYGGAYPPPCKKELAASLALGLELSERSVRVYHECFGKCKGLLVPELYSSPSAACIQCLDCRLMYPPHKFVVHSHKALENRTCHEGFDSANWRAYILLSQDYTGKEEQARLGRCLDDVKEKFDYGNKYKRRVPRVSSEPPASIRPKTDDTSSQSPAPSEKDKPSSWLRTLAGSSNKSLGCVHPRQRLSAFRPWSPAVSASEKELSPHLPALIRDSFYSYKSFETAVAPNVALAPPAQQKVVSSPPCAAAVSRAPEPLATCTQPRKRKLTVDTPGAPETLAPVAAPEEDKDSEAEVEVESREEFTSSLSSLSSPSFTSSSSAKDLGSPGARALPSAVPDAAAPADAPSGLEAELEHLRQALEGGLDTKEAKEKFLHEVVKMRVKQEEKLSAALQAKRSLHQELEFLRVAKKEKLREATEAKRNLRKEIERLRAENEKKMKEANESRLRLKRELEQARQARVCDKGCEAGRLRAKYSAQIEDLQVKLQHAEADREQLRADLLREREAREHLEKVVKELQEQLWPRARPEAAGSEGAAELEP
# Legend:
# Flag-Smad3, full length = target: T2, Flag-Smad3, full length (UniProt P84022 1-425); test: co-IP; LUMIER: Renilla luciferase-Smad3 and Flag-tagged partner co-expressed with constitutively active Alk5 in HEK-293; Flag protein captured from cleared lysate (TNE: 10 mM Tris-HCl pH 7.8, 150 mM NaCl, 1 mM EDTA, 1% Igepal CA-630) on anti-Flag 96-well plates, 2 h at 4 °C; co-precipitated Renilla luciferase activity, TrxGA background subtracted, percent of wild-type Smad3; conditions: partners not purified
# T2 construct: Smad3; plasmid pCMV5-Flag-Smad3 (from J. Massagué); bait for Smad3-Smad3 association; also called Smad3 FL; source: HEK-293, transfected together with constitutively active Alk5, in lysate
# [1] = target: T1, Flag-SkiW274E, full length; test: as above; conditions: partners not purified
"percent binding relative to wild-type Smad3 (Flag-Smad3, full length) [%]",percent binding relative to wild-type Smad3 [1] [%],Binder
100,111,"Renilla luciferase-Smad3 C338A (natural protein, UniProt P84022 1-425, looked up, Smad3; source: HEK-293, transfected together with constitutively active Alk5, in lysate) MSSILPFTPPIVKRLLGWKKGEQNGQEEKWCEKAVKSLVKKLKKTGQLDELEKAITTQNVNTKCITIPRSLDGRLQVSHRKGLPHVIYCRLWRWPDLHSHHELRAMELCEFAFNMKKDEVCVNPYHYQRVETPVLPPVLVPRHTEIPAEFPPLDDYSHSIPENTNFPAGIEPQSNIPETPPPGYLSEDGETSDHQMNHSMDAGSPNLSPNPMSPAHNNLDLQPVTYCEPAFWCSISYYELNQRVGETFHASQPSMTVDGFTDPSNSERFCLGLLSNVNRNAAVELTRRHIGRGVRLYYIGGEVFAECLSDSAIFVQSPNCNQRYGWHPATVCKIPPGANLKIFNNQEFAALLAQSVNQGFEAVYQLTRMCTIRMSFVKGWGAEYRRQTVTSTPCWIELHLNGPLQWLDKVLTQMGSPSIRCSSVS"
159,88,"Renilla luciferase-Smad3 W326A (natural protein, UniProt P84022 1-425, looked up, Smad3; source: HEK-293, transfected together with constitutively active Alk5, in lysate) MSSILPFTPPIVKRLLGWKKGEQNGQEEKWCEKAVKSLVKKLKKTGQLDELEKAITTQNVNTKCITIPRSLDGRLQVSHRKGLPHVIYCRLWRWPDLHSHHELRAMELCEFAFNMKKDEVCVNPYHYQRVETPVLPPVLVPRHTEIPAEFPPLDDYSHSIPENTNFPAGIEPQSNIPETPPPGYLSEDGETSDHQMNHSMDAGSPNLSPNPMSPAHNNLDLQPVTYCEPAFWCSISYYELNQRVGETFHASQPSMTVDGFTDPSNSERFCLGLLSNVNRNAAVELTRRHIGRGVRLYYIGGEVFAECLSDSAIFVQSPNCNQRYGAHPATVCKIPPGCNLKIFNNQEFAALLAQSVNQGFEAVYQLTRMCTIRMSFVKGWGAEYRRQTVTSTPCWIELHLNGPLQWLDKVLTQMGSPSIRCSSVS"
99,57,"Renilla luciferase-Smad3 L340A (natural protein, UniProt P84022 1-425, looked up, Smad3; source: HEK-293, transfected together with constitutively active Alk5, in lysate) MSSILPFTPPIVKRLLGWKKGEQNGQEEKWCEKAVKSLVKKLKKTGQLDELEKAITTQNVNTKCITIPRSLDGRLQVSHRKGLPHVIYCRLWRWPDLHSHHELRAMELCEFAFNMKKDEVCVNPYHYQRVETPVLPPVLVPRHTEIPAEFPPLDDYSHSIPENTNFPAGIEPQSNIPETPPPGYLSEDGETSDHQMNHSMDAGSPNLSPNPMSPAHNNLDLQPVTYCEPAFWCSISYYELNQRVGETFHASQPSMTVDGFTDPSNSERFCLGLLSNVNRNAAVELTRRHIGRGVRLYYIGGEVFAECLSDSAIFVQSPNCNQRYGWHPATVCKIPPGCNAKIFNNQEFAALLAQSVNQGFEAVYQLTRMCTIRMSFVKGWGAEYRRQTVTSTPCWIELHLNGPLQWLDKVLTQMGSPSIRCSSVS"
95,55,"Renilla luciferase-Smad3 K341A (natural protein, UniProt P84022 1-425, looked up, Smad3; source: HEK-293, transfected together with constitutively active Alk5, in lysate) MSSILPFTPPIVKRLLGWKKGEQNGQEEKWCEKAVKSLVKKLKKTGQLDELEKAITTQNVNTKCITIPRSLDGRLQVSHRKGLPHVIYCRLWRWPDLHSHHELRAMELCEFAFNMKKDEVCVNPYHYQRVETPVLPPVLVPRHTEIPAEFPPLDDYSHSIPENTNFPAGIEPQSNIPETPPPGYLSEDGETSDHQMNHSMDAGSPNLSPNPMSPAHNNLDLQPVTYCEPAFWCSISYYELNQRVGETFHASQPSMTVDGFTDPSNSERFCLGLLSNVNRNAAVELTRRHIGRGVRLYYIGGEVFAECLSDSAIFVQSPNCNQRYGWHPATVCKIPPGCNLAIFNNQEFAALLAQSVNQGFEAVYQLTRMCTIRMSFVKGWGAEYRRQTVTSTPCWIELHLNGPLQWLDKVLTQMGSPSIRCSSVS"
109,118,"Renilla luciferase-Smad3 P335A/P336A (natural protein, UniProt P84022 1-425, looked up, Smad3; source: HEK-293, transfected together with constitutively active Alk5, in lysate) MSSILPFTPPIVKRLLGWKKGEQNGQEEKWCEKAVKSLVKKLKKTGQLDELEKAITTQNVNTKCITIPRSLDGRLQVSHRKGLPHVIYCRLWRWPDLHSHHELRAMELCEFAFNMKKDEVCVNPYHYQRVETPVLPPVLVPRHTEIPAEFPPLDDYSHSIPENTNFPAGIEPQSNIPETPPPGYLSEDGETSDHQMNHSMDAGSPNLSPNPMSPAHNNLDLQPVTYCEPAFWCSISYYELNQRVGETFHASQPSMTVDGFTDPSNSERFCLGLLSNVNRNAAVELTRRHIGRGVRLYYIGGEVFAECLSDSAIFVQSPNCNQRYGWHPATVCKIAAGCNLKIFNNQEFAALLAQSVNQGFEAVYQLTRMCTIRMSFVKGWGAEYRRQTVTSTPCWIELHLNGPLQWLDKVLTQMGSPSIRCSSVS"
105,78,"Renilla luciferase-Smad3 S254A (natural protein, UniProt P84022 1-425, looked up, Smad3; source: HEK-293, transfected together with constitutively active Alk5, in lysate) MSSILPFTPPIVKRLLGWKKGEQNGQEEKWCEKAVKSLVKKLKKTGQLDELEKAITTQNVNTKCITIPRSLDGRLQVSHRKGLPHVIYCRLWRWPDLHSHHELRAMELCEFAFNMKKDEVCVNPYHYQRVETPVLPPVLVPRHTEIPAEFPPLDDYSHSIPENTNFPAGIEPQSNIPETPPPGYLSEDGETSDHQMNHSMDAGSPNLSPNPMSPAHNNLDLQPVTYCEPAFWCSISYYELNQRVGETFHASQPAMTVDGFTDPSNSERFCLGLLSNVNRNAAVELTRRHIGRGVRLYYIGGEVFAECLSDSAIFVQSPNCNQRYGWHPATVCKIPPGCNLKIFNNQEFAALLAQSVNQGFEAVYQLTRMCTIRMSFVKGWGAEYRRQTVTSTPCWIELHLNGPLQWLDKVLTQMGSPSIRCSSVS"
222,137,"Renilla luciferase-Smad3 E267A (natural protein, UniProt P84022 1-425, looked up, Smad3; source: HEK-293, transfected together with constitutively active Alk5, in lysate) MSSILPFTPPIVKRLLGWKKGEQNGQEEKWCEKAVKSLVKKLKKTGQLDELEKAITTQNVNTKCITIPRSLDGRLQVSHRKGLPHVIYCRLWRWPDLHSHHELRAMELCEFAFNMKKDEVCVNPYHYQRVETPVLPPVLVPRHTEIPAEFPPLDDYSHSIPENTNFPAGIEPQSNIPETPPPGYLSEDGETSDHQMNHSMDAGSPNLSPNPMSPAHNNLDLQPVTYCEPAFWCSISYYELNQRVGETFHASQPSMTVDGFTDPSNSARFCLGLLSNVNRNAAVELTRRHIGRGVRLYYIGGEVFAECLSDSAIFVQSPNCNQRYGWHPATVCKIPPGCNLKIFNNQEFAALLAQSVNQGFEAVYQLTRMCTIRMSFVKGWGAEYRRQTVTSTPCWIELHLNGPLQWLDKVLTQMGSPSIRCSSVS"
118,212,"Renilla luciferase-Smad3 V224A (natural protein, UniProt P84022 1-425, looked up, Smad3; source: HEK-293, transfected together with constitutively active Alk5, in lysate) MSSILPFTPPIVKRLLGWKKGEQNGQEEKWCEKAVKSLVKKLKKTGQLDELEKAITTQNVNTKCITIPRSLDGRLQVSHRKGLPHVIYCRLWRWPDLHSHHELRAMELCEFAFNMKKDEVCVNPYHYQRVETPVLPPVLVPRHTEIPAEFPPLDDYSHSIPENTNFPAGIEPQSNIPETPPPGYLSEDGETSDHQMNHSMDAGSPNLSPNPMSPAHNNLDLQPATYCEPAFWCSISYYELNQRVGETFHASQPSMTVDGFTDPSNSERFCLGLLSNVNRNAAVELTRRHIGRGVRLYYIGGEVFAECLSDSAIFVQSPNCNQRYGWHPATVCKIPPGCNLKIFNNQEFAALLAQSVNQGFEAVYQLTRMCTIRMSFVKGWGAEYRRQTVTSTPCWIELHLNGPLQWLDKVLTQMGSPSIRCSSVS"
275,30,"Renilla luciferase-Smad3 V356R (natural protein, UniProt P84022 1-425, looked up, Smad3; source: HEK-293, transfected together with constitutively active Alk5, in lysate) MSSILPFTPPIVKRLLGWKKGEQNGQEEKWCEKAVKSLVKKLKKTGQLDELEKAITTQNVNTKCITIPRSLDGRLQVSHRKGLPHVIYCRLWRWPDLHSHHELRAMELCEFAFNMKKDEVCVNPYHYQRVETPVLPPVLVPRHTEIPAEFPPLDDYSHSIPENTNFPAGIEPQSNIPETPPPGYLSEDGETSDHQMNHSMDAGSPNLSPNPMSPAHNNLDLQPVTYCEPAFWCSISYYELNQRVGETFHASQPSMTVDGFTDPSNSERFCLGLLSNVNRNAAVELTRRHIGRGVRLYYIGGEVFAECLSDSAIFVQSPNCNQRYGWHPATVCKIPPGCNLKIFNNQEFAALLAQSRNQGFEAVYQLTRMCTIRMSFVKGWGAEYRRQTVTSTPCWIELHLNGPLQWLDKVLTQMGSPSIRCSSVS"
143,100,"Renilla luciferase-Smad3 Q322A/Y324A (natural protein, UniProt P84022 1-425, looked up, Smad3; source: HEK-293, transfected together with constitutively active Alk5, in lysate) MSSILPFTPPIVKRLLGWKKGEQNGQEEKWCEKAVKSLVKKLKKTGQLDELEKAITTQNVNTKCITIPRSLDGRLQVSHRKGLPHVIYCRLWRWPDLHSHHELRAMELCEFAFNMKKDEVCVNPYHYQRVETPVLPPVLVPRHTEIPAEFPPLDDYSHSIPENTNFPAGIEPQSNIPETPPPGYLSEDGETSDHQMNHSMDAGSPNLSPNPMSPAHNNLDLQPVTYCEPAFWCSISYYELNQRVGETFHASQPSMTVDGFTDPSNSERFCLGLLSNVNRNAAVELTRRHIGRGVRLYYIGGEVFAECLSDSAIFVQSPNCNARAGWHPATVCKIPPGCNLKIFNNQEFAALLAQSVNQGFEAVYQLTRMCTIRMSFVKGWGAEYRRQTVTSTPCWIELHLNGPLQWLDKVLTQMGSPSIRCSSVS"
